Article PMC10514313, “Identification of enzymatic functions of osmo-regulated periplasmic glucan biosynthesis proteins from Escherichia coli reveals a novel glycoside hydrolase family” (Communications Biology, 2023)
Changes are numbered by the printed parent chain. In names and notes the source's numbering stands.

Tests used:
[1] = target: T1, EcOpgG (Escherichia coli, UniProt P33136, D361N); test: X-ray crystal structure of the complex ([…] Å); format: binding; settings: crystallised and soaked with β-1,2-glucan of average DP 17.7, Sop16 is the part seen in density; pH 5.0
T1 construct: gene mdoG; 56543 Da; homodimer
T1 sequence (P33136 23-511 D361N): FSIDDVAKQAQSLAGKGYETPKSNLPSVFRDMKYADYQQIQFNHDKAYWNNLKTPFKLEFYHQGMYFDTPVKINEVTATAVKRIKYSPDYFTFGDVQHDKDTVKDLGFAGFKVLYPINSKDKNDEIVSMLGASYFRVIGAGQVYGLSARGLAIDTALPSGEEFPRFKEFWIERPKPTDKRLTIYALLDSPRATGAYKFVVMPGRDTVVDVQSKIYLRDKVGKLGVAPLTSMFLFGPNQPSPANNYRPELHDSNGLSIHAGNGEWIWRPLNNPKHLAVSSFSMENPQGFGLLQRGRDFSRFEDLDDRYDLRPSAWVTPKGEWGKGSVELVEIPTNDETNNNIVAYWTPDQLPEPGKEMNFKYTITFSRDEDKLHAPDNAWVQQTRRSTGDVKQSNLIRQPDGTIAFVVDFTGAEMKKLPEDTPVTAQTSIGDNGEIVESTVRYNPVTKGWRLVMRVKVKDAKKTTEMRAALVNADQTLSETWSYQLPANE

[2] = target: T2, EcOpgD (Escherichia coli, UniProt P40120, D388N); test: X-ray crystal structure of the complex ([…] Å); format: binding; settings: co-crystallised with β-1,2-glucan of average DP 121, Sop13 is the part seen in density (chain B; DP11 in chain A); pH 4.0; subsites -7 to +6; Table 3 prints the mutant as D378N
T2 construct: gene mdoD; 60601 Da; homodimer, Loop A of the other subunit completes the site
T2 sequence (P40120 33-551 D388N): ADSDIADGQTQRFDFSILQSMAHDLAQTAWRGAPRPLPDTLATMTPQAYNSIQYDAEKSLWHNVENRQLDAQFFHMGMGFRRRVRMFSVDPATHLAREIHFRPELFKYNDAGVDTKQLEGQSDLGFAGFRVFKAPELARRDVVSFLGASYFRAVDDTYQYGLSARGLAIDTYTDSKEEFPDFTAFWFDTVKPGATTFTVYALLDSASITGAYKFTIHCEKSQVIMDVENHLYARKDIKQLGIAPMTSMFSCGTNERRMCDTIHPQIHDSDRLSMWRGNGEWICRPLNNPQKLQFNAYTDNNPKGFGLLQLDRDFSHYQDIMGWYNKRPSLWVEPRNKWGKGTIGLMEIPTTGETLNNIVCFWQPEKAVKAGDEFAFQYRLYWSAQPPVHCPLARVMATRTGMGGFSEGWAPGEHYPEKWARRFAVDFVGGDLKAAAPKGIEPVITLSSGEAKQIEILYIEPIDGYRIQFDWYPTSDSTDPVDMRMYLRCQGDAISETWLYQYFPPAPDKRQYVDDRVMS

[3] = target: the molecule itself; test: SEC; Superdex 200GL (24 ml), 20 mM Tris-HCl pH 7.5, 100 mM NaCl, 0.5 mg/mL protein loaded, 0.3 mL/min; molecular weight from marker proteins
[4] = target: the molecule itself; test: crystal structure; ligand-free EcOpgD D388N, 2.95 Å, 12 monomers (six dimers) in the asymmetric unit; 0.1 M Tris-HCl pH 8.5, 0.1 M trimethylamine-N-oxide, 17% PEG 2000 MME, 20 °C
[5] = target: the molecule itself; test: crystal structure; EcOpgG D361N with β-1,2-glucan, 1.81 Å, one chain in the asymmetric unit, dimer with a symmetry mate; 0.1 M MMT pH 5.0, 27% PEG 400, 20 °C

OC[C@H]1O[C@@H](O[C@H]2[C@H](O[C@H]3[C@H](O[C@H]4[C@H](O[C@H]5[C@H](O[C@H]6[C@H](O[C@H]7[C@H](O[C@H]8[C@H](O[C@H]9[C@H](O[C@H]%10[C@H](O[C@H]%11[C@H](O[C@H]%12[C@H](O[C@H]%13[C@H](O[C@H]%14[C@H](O[C@H]%15[C@H](O[C@H]%16C(O)O[C@H](CO)[C@@H](O)[C@@H]%16O)O[C@H](CO)[C@@H](O)[C@@H]%15O)O[C@H](CO)[C@@H](O)[C@@H]%14O)O[C@H](CO)[C@@H](O)[C@@H]%13O)O[C@H](CO)[C@@H](O)[C@@H]%12O)O[C@H](CO)[C@@H](O)[C@@H]%11O)O[C@H](CO)[C@@H](O)[C@@H]%10O)O[C@H](CO)[C@@H](O)[C@@H]9O)O[C@H](CO)[C@@H](O)[C@@H]8O)O[C@H](CO)[C@@H](O)[C@@H]7O)O[C@H](CO)[C@@H](O)[C@@H]6O)O[C@H](CO)[C@@H](O)[C@@H]5O)O[C@H](CO)[C@@H](O)[C@@H]4O)O[C@H](CO)[C@@H](O)[C@@H]3O)O[C@H](CO)[C@@H](O)[C@@H]2O)[C@H](O)[C@@H](O)[C@@H]1O (stereo partly drawn) [Sop16]
X-ray crystal structure of the complex (1.81 Å) [1]: In the catalytic pocket of the complex, the electron density of a Sop16 molecule was observed

OC[C@H]1O[C@@H](O[C@H]2[C@H](O[C@H]3[C@H](O[C@H]4[C@H](O[C@H]5[C@H](O[C@H]6[C@H](O[C@H]7[C@H](O[C@H]8[C@H](O[C@H]9[C@H](O[C@H]%10[C@H](O[C@H]%11[C@H](O[C@H]%12[C@H](O[C@H]%13C(O)O[C@H](CO)[C@@H](O)[C@@H]%13O)O[C@H](CO)[C@@H](O)[C@@H]%12O)O[C@H](CO)[C@@H](O)[C@@H]%11O)O[C@H](CO)[C@@H](O)[C@@H]%10O)O[C@H](CO)[C@@H](O)[C@@H]9O)O[C@H](CO)[C@@H](O)[C@@H]8O)O[C@H](CO)[C@@H](O)[C@@H]7O)O[C@H](CO)[C@@H](O)[C@@H]6O)O[C@H](CO)[C@@H](O)[C@@H]5O)O[C@H](CO)[C@@H](O)[C@@H]4O)O[C@H](CO)[C@@H](O)[C@@H]3O)O[C@H](CO)[C@@H](O)[C@@H]2O)[C@H](O)[C@@H](O)[C@@H]1O (stereo partly drawn) [Sop13]
X-ray crystal structure of the complex (2.06 Å) [2]: electron densities of β-1,2-glucans with DP11 and DP13 (Sop11 and Sop13, respectively) were clearly observed

B1: OpgD from E. coli (EcOpgD), wild type, without signal sequence, C-terminal His6-tag (enzyme, Escherichia coli, UniProt P40120 33-551, looked up)
chain: T2 sequence (P40120 33-551 D388N) with N356D
notes: OpgD (glucans biosynthesis protein D) of Escherichia coli, gene amplified from a colony of E. coli BL21(DE3), GenBank CAQ31910.2; theoretical mass 60601 Da; Cloned between the XhoI and NdeI sites of pET30a; also called MdoD; source: E. coli BL21(DE3), purified (HisTrap FF crude)
stoichiometry N [3]: 2

B2: EcOpgD D388N mutant, without signal sequence, C-terminal His6-tag (enzyme, Escherichia coli, UniProt P40120 33-551, looked up)
chain: T2 sequence (P40120 33-551 D388N)
notes: made from the EcOpgD plasmid of m1; text and methods say D388N; source: E. coli BL21(DE3), purified (HisTrap FF crude)
binding result [4]: binds

B3: OpgG from E. coli (EcOpgG), wild type, without signal sequence, C-terminal His6-tag (enzyme, Escherichia coli, UniProt P33136 23-511, looked up)
chain: T1 sequence (P33136 23-511 D361N) with N339D
notes: OpgG (glucans biosynthesis protein G) of Escherichia coli, gene amplified from a colony of E. coli BL21(DE3), GenBank CAQ31569.1; theoretical mass 56543 Da; Cloned between the XhoI and NdeI sites of pET30a; also called MdoG; source: E. coli BL21(DE3), purified (HisTrap FF crude)
stoichiometry N [3]: 2

B4: EcOpgG D361N mutant, without signal sequence, C-terminal His6-tag (enzyme, Escherichia coli, UniProt P33136 23-511, looked up)
chain: T1 sequence (P33136 23-511 D361N)
notes: made from the EcOpgG plasmid of m2; One monomer in the asymmetric unit; the second chain of the dimer is a symmetry mate; source: E. coli BL21(DE3), purified (HisTrap FF crude)
binding result [5]: binds
